Data: patent publication US20220289837A1, “Cystic Fibrosis Transmembrane Conductance Regulator Stabilizing Agents” (VIB VZW, priority 2019, published 2022)

Tests used:
wt-CFTR [1] = molecular target: T1, wt-CFTR (Homo sapiens, UniProt P13569); assay: CFTR pull-down from solubilized BHK-21 cells with immunoblot; assay type: binding; design: expressed in transfected cells; conditions: immunoblot with mAb 596
Method: Human wt-CFTR was extracted from BHK-21 cells pellet by solubilization with 1% DMNG in PBS with proteases inhibitors for 1 h at 4° C. The cells debris were removed by centrifugation (16,000×g for 30 min at 4° C.). Supernatant was diluted 10 times in PBS with proteases inhibitors plus 10 mM imidazole and incubated at least for 30 min on HisPur Ni-NTA Resin (Thermo Scientific) pre-loaded with nanobodies. Resin was washed with 40 column volumes of PBS with 300 mM NaCl. Nanobodies were eluted with 200 mM imidazole in PBS. Presence of CFTR in each sample was detected by SDS-PAGE and immuno-blotting.
Cell extracts were separated by SDS-PAGE on 7.5% polyacrylamide gel and transferred to nitrocellulose membrane (Bio-Rad) for immunodetection. After blocking for 1 h with 5% bovine serum albumin (BSA) in Tris-buffered saline added 0.05% Tween-20 (TBST), CFTR was detected using monoclonal antibody mAb 596, IgG2b (CFTR Antibody Distribution Program, dilution 1:46) for 1 h in blocking buffer. Blot was washed 3 times 5 min and incubated with anti-mouse-HRP antibody (Millipore, catalogue number: AP308P, 0.2 μg/ml) for 1 h in TBST. Membrane was washed 3 times for 5 min. CFTR was visualized by chemiluminescence using Luminata Forte Western HRP Substrate (Millipore) and detected with ImageQuant 400 (GE Healthcare).

parental BHK-21 cells = assay: Flow cytometry on parental BHK-21 cells; assay type: cell-based, hamster; conditions: compared to negative control nanobody
Method: (§1) Parental BHK-21 cells (ATCC; CCL-10) and cells stably overexpressing human wt-CFTR^[43,44,47] or 2PT-F508del-CFTR, as described above, were permeabilized with 0.01% n-Dodecyl-β-D-Maltopyranoside β-DDM—Inalco) at least for 2 h on ice. In the meantime, cells were incubated with 50 μg/ml nanobodies and DRAQ7 (0.3 μM—Biostatus) to monitor the permeabilization state. Nanobody binding was detected by using His-tag specific antibody (Invitrogen, catalogue number MA1-135, 1 μg/ml) or Myc-tag specific antibody (Invitrogen, catalogue number 13-2500, 2 μg/ml) and then anti-mouse-Alexa Fluor 488 (Invitrogen, catalogue number A11001, 1.3 μg/ml) at least for 30 min on ice. Cells were washed one time between each step by centrifugation (200×g for 5 min at 4° C.). All incubations (100 μl) and washes (1.5 ml) were performed in PBS with 6% fetal bovine serum (FBS) and 0.01%13-DDM on ice. Cells fluorescence was measured with Gallios Flow Cytometer (Beckman Coulter). Data were analyzed with Kaluza software.

2PT-NBD1 [2] = molecular target: T2, 2PT-NBD1 (Homo sapiens, UniProt P13569, A534P/I539T/S492P/V470M); assay: Isothermal titration calorimetry (ITC) of nanobodies into 2PT-NBD1; assay type: binding; conditions: 20° C., 2PT-NBD1, mean±SD (n=3)
T2 construct: 2PT-NBD1 mutants (residues 387-646 containing the mutations S492P, A534P, I539T); His6-SUMO (N, cleaved yes); made in house; host or cells: Escherichia coli BL21(DE3) pLysS
Method: Interactions between nanobodies and 2PT-NBD1 was carried out on NanoITC system (TA Instruments) in 0.165 ml cells at 20° C., 300 rpm syringe stirring. Proteins were extensively dialyzed in 20 mM Hepes buffer pH 7.5, 150 mM NaCl, 10% (w/v) glycerol, 10% (w/v) ethylene glycol, 2 mM ATP and 3 mM MgCl2 for 16 h at 4° C. Heat of dilution from control experiments of each nanobody titrated into buffer was subtracted from the titration into 2PT-NBD1. Data were integrated analyzed with Origin 7.0 software (Origin Lab Corp.).
(§2) Affinity constants (KD) and thermodynamic parameters from ITC experiments were determined using one-site binding model with MicroCal Origin 7.0 software (Origin Lab Corp.). Dose response ELISA curves of each Nb binding to either isolated NBD1 or purified FL-CFTR were fitted using the sigmoidal dose-response equation from GraphPad Prism 3. DSC data were analyzed with the MicroCal Origin 7.0 software (Origin Lab Corp.), from which the unfolding temperature (Tm) was obtained.

[3] = molecular target: T3, stab-CFTR: 2PT/ΔRI/R1048A_1172X (Homo sapiens, UniProt P13569, A534P/DEL405-436/I539T/R1048A/S492P); assay: NanoDSF thermostability of stab-CFTR; assay type: binding; conditions: versus stab-CFTR alone
T3 construct: made in house; host or cells: BHK-21 cells (ATCC CCL-10), pNUT vector
Method: Purified stabilized human CFTR (stab-CFTR: 2PT/ΔRI/R1048A_1172X) was concentrated to 0.5 mg/ml and mixed with 0.1 mg/ml nanobody (^˜[…]) and capillaries were loaded with a volume of 10 The capillaries were placed into trays of Prometheus NT.48 (Nanotemper) and subjected to the fluorescence analysis. The emission of fluorescent radiation with the wavelengths of 330 nm and 350 nm was measured with the temperature changes from 25 to 85° C., with the rate of 1° C. min-1. The first derivative of 350 nm fluorescence was used to determine the melting temperature of the proteins.

2PT-NBD1 [4] = molecular target: T2, 2PT-NBD1; assay: Thermal shift assay (DSF) of 2PT-NBD1; assay type: binding; conditions: versus isolated 2PT-NBD1
Method: (§3) Solutions of either 2PT-NBD1 or F508del-2PT-NBD1 (10 μM final concentration), nanobodies (30 μM final concentration) and 2.5× or 5× concentrated SYPRO Orange Protein Stain (Molecular Probes) diluted in 20 mM HEPES pH 7.5, 150 mM NaCl, 3 mM MgCl2, 2 mM ATP and 10% (w/v) glycerol, 10% (w/v) ethylene glycol, were added to the wells of a 96-well PCR plates type BR white (VWR) in a final volume of 25 μl. Plates were sealed with EasySeal sheets (Molecular dimensions) and spun 2 min at 900× g. SYPRO orange fluorescence was monitored in CFX96 Touch Real-Time PCR Detection System (Bio-Rad) using FRET scan mode from 10 to 80° C. in increments of either 1° C. or 0.2° C.

F508del-2PT-NBD1 [5] = molecular target: T4, F508del-2PT-NBD1 (Homo sapiens, UniProt P13569, A534P/DEL508-508/I539T/S492P/V470M); assay: NBD1 ELISA dose-response, nanobody binding to immobilized F508del-2PT-NBD1; conditions: F508del-2PT-NBD1 versus 2PT-NBD1
T4 construct: His6-SUMO (N, cleaved yes); made in house; host or cells: Escherichia coli BL21(DE3) pLysS
Method: For dose-response assays, Nunc MaxiSorp 96-well plates (ThermoScientific), were coated with 5 μg/ml NeutrAvidin Biotin-Binding protein (ThermoScientific) overnight at 4° C. and blocked 2 h at room temperature (RT) with 2% milk in phosphate-buffered saline (PBS). Each new reagent addition was preceded by three washes with 200 μl of NBD1 buffer (20 mM HEPES pH 7.5, 150 mM NaCl, and 10% (w/v) glycerol, 10% (w/v) ethylene glycol, 2 mM ATP, 3 mM MgCl2). Then, biotinylated purified NBD1 proteins at 5 μg/ml were immobilized 30 min at RT followed by 1 h RT incubation with 100 μl various concentrations (0-20 μg/ml) of purified nanobodies. Signal detection was followed using His-tag specific antibody (Invitrogen, catalogue number: MA1-135, 1:3000 dilution) to detect the nanobodies and secondary antibody anti-mouse coupled to horse radish peroxidase (HRP) (Millipore, catalogue number: AP308P, 1:5000 dilution). 50 μl of 1-Step UltraTMB-ELISA (ThermoScientific) was used as a substrate for the peroxidase and intensity of the reaction was proportional to absorbance measured at 450 nm with SynergyMx (BioTek) after addition of 50 μl H2SO4 at 1M.
as §2

F508del-2PT-NBD1 [6] = molecular target: T4, F508del-2PT-NBD1; assay: Thermal shift assay (DSF) of F508del-2PT-NBD1; assay type: binding
Method: as §3

wt-CFTR [7] = molecular target: T1, wt-CFTR; assay: Flow cytometry on permeabilized BHK-21 cells overexpressing wt-CFTR; assay type: cell-based; design: expressed in transfected cells; conditions: compared to negative control nanobody
Method: as §1

T1 sequence (P13569 whole entry): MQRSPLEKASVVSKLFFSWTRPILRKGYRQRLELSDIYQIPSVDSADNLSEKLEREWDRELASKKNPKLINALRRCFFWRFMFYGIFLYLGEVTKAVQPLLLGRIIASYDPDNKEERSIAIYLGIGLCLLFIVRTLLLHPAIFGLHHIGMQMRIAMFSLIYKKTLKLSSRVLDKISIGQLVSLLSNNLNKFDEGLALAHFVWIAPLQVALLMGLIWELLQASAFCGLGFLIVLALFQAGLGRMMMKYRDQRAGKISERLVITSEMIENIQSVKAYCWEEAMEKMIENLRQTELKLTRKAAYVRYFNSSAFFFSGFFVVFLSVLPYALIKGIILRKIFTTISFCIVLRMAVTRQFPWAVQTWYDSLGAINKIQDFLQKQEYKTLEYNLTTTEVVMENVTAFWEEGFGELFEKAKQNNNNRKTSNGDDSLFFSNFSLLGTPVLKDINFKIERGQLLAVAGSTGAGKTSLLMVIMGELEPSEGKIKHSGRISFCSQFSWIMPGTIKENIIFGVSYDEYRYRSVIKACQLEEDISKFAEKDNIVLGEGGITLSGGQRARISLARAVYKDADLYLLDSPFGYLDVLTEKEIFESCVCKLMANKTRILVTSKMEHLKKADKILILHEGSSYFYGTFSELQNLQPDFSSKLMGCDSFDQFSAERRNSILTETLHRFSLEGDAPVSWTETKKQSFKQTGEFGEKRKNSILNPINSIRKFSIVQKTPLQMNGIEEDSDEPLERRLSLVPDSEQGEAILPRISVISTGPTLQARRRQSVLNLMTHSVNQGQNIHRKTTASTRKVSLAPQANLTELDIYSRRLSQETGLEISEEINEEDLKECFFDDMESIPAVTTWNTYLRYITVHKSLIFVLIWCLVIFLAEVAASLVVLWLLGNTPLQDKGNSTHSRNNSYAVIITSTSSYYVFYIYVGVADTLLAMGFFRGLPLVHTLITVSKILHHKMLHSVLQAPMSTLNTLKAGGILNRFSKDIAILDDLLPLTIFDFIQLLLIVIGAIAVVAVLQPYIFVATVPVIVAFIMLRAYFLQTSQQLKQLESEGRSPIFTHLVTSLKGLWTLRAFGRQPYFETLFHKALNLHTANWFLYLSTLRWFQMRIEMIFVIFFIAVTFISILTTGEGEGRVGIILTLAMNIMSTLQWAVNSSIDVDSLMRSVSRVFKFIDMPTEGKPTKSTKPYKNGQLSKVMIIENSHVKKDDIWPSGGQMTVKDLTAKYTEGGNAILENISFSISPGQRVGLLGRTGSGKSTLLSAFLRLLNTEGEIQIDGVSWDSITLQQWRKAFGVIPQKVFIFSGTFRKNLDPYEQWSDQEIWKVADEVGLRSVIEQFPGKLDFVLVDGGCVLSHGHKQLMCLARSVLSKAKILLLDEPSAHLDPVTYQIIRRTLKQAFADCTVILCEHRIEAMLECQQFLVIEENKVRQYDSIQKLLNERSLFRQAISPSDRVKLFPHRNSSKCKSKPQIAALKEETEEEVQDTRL
T4 sequence (P13569 with tags, fused parts or gaps V470M/S492P/DEL508-508/A534P/I539T limits assumed): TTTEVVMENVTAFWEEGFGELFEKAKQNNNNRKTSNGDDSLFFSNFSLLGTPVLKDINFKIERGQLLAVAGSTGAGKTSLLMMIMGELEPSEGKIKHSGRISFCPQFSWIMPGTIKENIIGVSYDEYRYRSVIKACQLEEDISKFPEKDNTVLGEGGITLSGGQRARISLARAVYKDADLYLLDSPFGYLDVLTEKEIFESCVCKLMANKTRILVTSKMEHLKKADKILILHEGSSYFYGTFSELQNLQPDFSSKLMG
T2 sequence (P13569 388-646 V470M/S492P/A534P/I539T): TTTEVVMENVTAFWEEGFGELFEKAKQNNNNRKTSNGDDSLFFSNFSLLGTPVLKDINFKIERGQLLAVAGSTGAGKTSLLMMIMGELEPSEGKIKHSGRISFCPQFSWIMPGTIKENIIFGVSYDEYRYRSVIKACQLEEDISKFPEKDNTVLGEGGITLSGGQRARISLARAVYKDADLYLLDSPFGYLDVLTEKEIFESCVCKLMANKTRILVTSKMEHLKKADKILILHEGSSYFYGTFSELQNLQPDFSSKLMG
T3 sequence (P13569 with tags, fused parts or gaps DEL405-436/S492P/A534P/I539T/R1048A limits assumed): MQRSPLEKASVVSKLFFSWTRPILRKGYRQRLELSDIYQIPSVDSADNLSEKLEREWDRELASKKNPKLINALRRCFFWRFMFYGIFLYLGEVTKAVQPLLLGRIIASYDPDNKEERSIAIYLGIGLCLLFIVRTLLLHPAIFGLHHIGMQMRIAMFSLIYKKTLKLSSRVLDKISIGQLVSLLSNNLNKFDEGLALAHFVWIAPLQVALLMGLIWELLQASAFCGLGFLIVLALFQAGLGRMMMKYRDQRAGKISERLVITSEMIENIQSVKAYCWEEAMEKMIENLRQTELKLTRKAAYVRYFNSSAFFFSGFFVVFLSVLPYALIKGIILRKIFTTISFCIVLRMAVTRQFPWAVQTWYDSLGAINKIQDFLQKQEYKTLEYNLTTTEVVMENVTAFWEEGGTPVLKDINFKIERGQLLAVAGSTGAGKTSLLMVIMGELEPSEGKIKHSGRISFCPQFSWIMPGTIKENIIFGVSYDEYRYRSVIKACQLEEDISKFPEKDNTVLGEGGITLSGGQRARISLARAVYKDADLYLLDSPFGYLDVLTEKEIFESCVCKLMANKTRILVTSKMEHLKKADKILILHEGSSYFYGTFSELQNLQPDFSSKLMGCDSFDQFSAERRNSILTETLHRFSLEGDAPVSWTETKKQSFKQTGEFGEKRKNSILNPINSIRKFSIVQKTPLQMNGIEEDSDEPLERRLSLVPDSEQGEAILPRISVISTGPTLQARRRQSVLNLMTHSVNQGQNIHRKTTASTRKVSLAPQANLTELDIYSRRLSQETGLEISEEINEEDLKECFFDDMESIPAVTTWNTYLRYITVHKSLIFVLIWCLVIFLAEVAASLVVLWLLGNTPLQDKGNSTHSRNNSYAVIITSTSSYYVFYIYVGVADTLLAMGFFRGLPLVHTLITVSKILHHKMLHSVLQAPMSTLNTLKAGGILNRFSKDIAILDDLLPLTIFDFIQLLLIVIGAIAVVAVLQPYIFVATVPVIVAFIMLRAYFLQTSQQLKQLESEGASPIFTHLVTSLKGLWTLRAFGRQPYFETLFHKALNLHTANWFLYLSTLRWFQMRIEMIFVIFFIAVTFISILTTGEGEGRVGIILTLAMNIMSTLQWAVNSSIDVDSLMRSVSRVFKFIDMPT

pull-down of cellular CFTR, electrophoresis pattern (mature band C) (wt-CFTR [1]): also observed | Kd (2PT-NBD1 [2]): 37.9 ± 7 nM | effect of F508del mutation on binding (F508del-2PT-NBD1 [5]): drastically affected | stabilization of F508del-2PT-NBD1 (F508del-2PT-NBD1 [6]): did not stabilize | labelling of BHK-21 cells overexpressing wt-CFTR (wt-CFTR [7]): increased labelling
B1: T4: nanobody, SEQ ID NO:6, binds epitope 2 including F508, stabilizes wild type CFTR (protein)
VHH: QVQLQESGGGLVQAGGSLRLSCAASGSTFAIIAMGWYRQAPGKQRELVAVISTGDTRYADSVKGRFTISRDNAKNTVYLQMDSLRPEDTAVYYCNAAVQVRDYRNYWGQGTQVTVSS
modifications: T4 Nanobody amino acid sequence
labelling of parental BHK-21 cells (parental BHK-21 cells): no difference in labelling | thermostabilization of stab-CFTR (Tm increase) [3]: 8 °C | increase of Tm of 2PT-NBD1 (2PT-NBD1 [4]): 12.5 °C
